Results on five molecules are retold here after patent US20190322762A1 (DEVELOPMENT CENTER FOR BIOTECHNOLOGY, published 2019).

Residue numbers refer to the chain shown, from its start.

For assay [1], the target named is T1, human ENO1 protein (human, UniProt P06733 1-434).
T1 construct: Purified human ENO1 protein coated on ELISA plates or injected as SPR analyte; also called alpha-enolase; enolase-1
Description: told with the SPR results of FIG. 7B. An excerpt:
(§1) To know the binding kinetics difference among individual antibodies, surface plasmon resonance (SPR) measurement with a BIAcore 2000 (BIAcore. Inc., Piscataway, N.J.) was used as previously described (Karlsson & Falt, (1997) J. Immunol Methods 200:121-133). Carboxymethylated dextran biosensor chips (CM5, BIAcore Inc.) were activated with N-ethyl-N′-(3-dimethylaminopropyl)-carbodiimide hydrochloride (EDC) and N-hydroxysu-ccinimide (NHS) according to the supplier's instructions. Chimera EN10 mAb was diluted with 10 mM sodium acetate, pH 4.8, into 5 microgram/ml before injection at a flow rate of 20 micro L/minute to achieve approximately 100 response units (RU) of coupled protein followed by the injection of 1M ethanolamine to block unreacted groups. For kinetics measurements, two-fold serial dilutions of ENO1 (0.3125 nM to 40 nM) were injected in HBS-P Biacore running buffer provided by the manufacturer (BIAcore, Inc., Piscataway, N.J.) at 25 degree C. at a flow rate of 25 microL/min. and binding responses on the EN10 mAb were corrected by subtraction of responses on a blank flow cell. Association rates (kon or ka) and dissociation rates (koff or kd) were calculated using a simple one-to-one Langmuir binding model with separate fittings of kon and koff was used. (BIAcore™ Evaluation Software version 3.2).

Assay [2] has as its target T1, human ENO1 protein. Description: SPR, BIAcore 2000, antibody on the chip, ENO1 0.3125 nM to 40 nM as analyte, 25 degree C.
Description: as §1
(In general: SPR reads the build-up and loss of mass on a sensor chip optically.)

Assay [3] concerns the target T1, human ENO1 protein. Description: ELISA, human ENO1 coated on the plate; upper plateau of the four parameter logistic fit. As to the method: (§2) To determine the binding activity of each mutant antibody, 400 ng/100 μL of human ENO1 protein was coated on a 96-well ELISA overnight at 4° C. and the plate further was washed by PBS. The plate was blocked with 1% BSA (w/v) in PBS at room temperature for 1 hour, then washed again with 1×PBS. EN10.4, EN10.5, and humEN10 mAb antibodies were 2-fold serial diluted to 15 different concentrations and added to the plate at 37° C. for 1 hour. After the reaction was complete, the plate was washed 3 times with 1×PBS. A 1/8000 dilution of goat anti-human-HRP antibody was added and incubated at 37° C. for 1 hour, and then the plate washed 3 times with 1×PBS. The TMB substrate was added and reacted at room temperature for 30 minutes. The reaction was stopped by adding 1N HCl, and OD 450 was read to determine the activity. Every study was repeated three times. Data are presented as mean±SD. OD readings and concentrations of antibody were used to make a multiple scatter figure by Sigmaplot. The KD values were predicted by four parameter logistic fit.
(§3) There is no significant affinity difference among three different editions of hum EN10 mAb antibodies. […] Due to the structure similarity between cysteine and serine, EN10.5 is chosen to generate antibody production cell lines.

In assay [4] the target is T1, human ENO1 protein. The assay can be described thus: ELISA, 400 ng/100 µL human ENO1 coated, antibody in 15 two-fold dilutions, four parameter logistic fit. As to the method:
as §2, §3
A general note: An ELISA detects its analyte on a solid surface through an enzyme-linked reagent.

For assay [5], the target named is T1, human ENO1 protein. The assay can be described thus: ENO1 binding ELISA.
For assay [6], the target named is T2, ENO1 mutant S310 to alanine (human, UniProt P06733 1-434).
T2 construct: Expressed in E. coli and purified on Ni-agarose
Description: ELISA, ENO1 mutant A310 coated, EN10.5 mAb titrated, four parameter logistic fit. As for the experimental part: (§4) To determine the binding activity of each mutant protein, 400 ng/100 μL of human ENO1 protein or mutated ENO1 protein was coated on a 96-well ELISA plate and incubated overnight at 4° C. and the plate was washed with PBS. The plate was blocked with 1% BSA (w/v) in PBS at room temperature for 1 hour, then washed again with 1×PBS. A primary antibody (EN10.5 mAb) was 2-fold serial diluted to 15 different concentrations and added to the plate at 37° C. for 1 hour. After the reaction was done, the plate was washed 3 times with 1×PBS. A 1/8000 dilution of goat anti-mouse-HRP antibody was added and incubated at 37° C. for 1 hour, then the plate was washed 3 times with 1×PBS. Then, TMB substrate was added and the reaction was allowed to proceed at room temperature for 30 minutes. The reaction was stopped by adding 1N HCl and OD450 was read to determine the activity. Each study was repeated three times. Data are presented as mean±SD. OD readings and concentrations of antibody were used to make a multiple scatter plot using Sigmaplot™. The KD values were predicted by four parameter logistic fit.
(§5) Thus, the crystal structure of ENO1 was downloaded from protein data bank (pdb-entry: 2PSN) to analyze residue positions from this region. […] Every purified ENO1 mutant protein was analyzed for any KD changes by ENO1 binding in ELISA. […]

Another assay addresses T3, A333 (human).
T3 construct: Sixth mutant of the alanine scan; It is named only on the sheets; the text lists five mutants
The assay can be described thus: ELISA, ENO1 mutant A333 coated, EN10.5 mAb titrated, four parameter logistic fit. As to the method:
as §4, §5

The target in assay [7] is T4, ENO1 mutant G312 to alanine (human, UniProt P06733 1-434).
T4 construct: Expressed in E. coli and purified on Ni-agarose
Description: ELISA, ENO1 mutant A312 coated, EN10.5 mAb titrated, four parameter logistic fit. As to the method:
as §4, §5

The target in assay [8] is T5, ENO1 mutant D299 to alanine (human, UniProt P06733 1-434).
T5 construct: Expressed in E. coli and purified on Ni-agarose
The assay can be described thus: ELISA, ENO1 mutant A299 coated, EN10.5 mAb titrated, four parameter logistic fit. As to the method:
as §4, §5

For assay [9], the target named is T6, ENO1 mutant R327 to alanine (human, UniProt P06733 1-434).
T6 construct: Expressed in E. coli and purified on Ni-agarose
The assay can be described thus: ELISA, ENO1 mutant A327 coated, EN10.5 mAb titrated. As for the experimental part:
as §4, §5

In assay [10] the target is T7, ENO1 mutant Q298 to alanine (human, UniProt P06733 1-434).
T7 construct: Expressed in E. coli and purified on Ni-agarose
Description: ELISA, ENO1 mutant A298 coated, EN10.5 mAb titrated, four parameter logistic fit. As for the experimental part: as §4, §5

The next assay concerns the target T8, BSA (Bos taurus, UniProt P02769).
T8 construct: The sheet prints only 'BSA'; also called bovine serum albumin; BSA background
Description: ELISA, BSA as background.

T1 sequence (P06733 whole entry): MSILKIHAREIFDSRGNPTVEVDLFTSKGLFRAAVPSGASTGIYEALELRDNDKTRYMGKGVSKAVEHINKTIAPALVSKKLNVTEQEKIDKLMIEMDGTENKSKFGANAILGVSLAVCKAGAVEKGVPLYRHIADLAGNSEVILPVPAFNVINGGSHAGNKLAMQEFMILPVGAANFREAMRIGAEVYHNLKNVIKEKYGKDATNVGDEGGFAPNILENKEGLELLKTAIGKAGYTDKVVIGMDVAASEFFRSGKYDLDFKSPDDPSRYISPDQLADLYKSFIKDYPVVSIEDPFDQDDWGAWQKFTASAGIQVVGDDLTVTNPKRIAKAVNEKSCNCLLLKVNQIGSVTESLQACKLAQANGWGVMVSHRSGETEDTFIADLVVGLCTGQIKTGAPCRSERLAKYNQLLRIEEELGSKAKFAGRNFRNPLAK
T7 sequence (P06733 other isoform, or with tags, fused parts or gaps mutant limits assumed): as the sequence (P06733 whole entry) above, with Q298A counted along it
T5 sequence (P06733 other isoform, or with tags, fused parts or gaps mutant limits assumed): as the sequence (P06733 whole entry) above, with D299A counted along it
T6 sequence (P06733 other isoform, or with tags, fused parts or gaps mutant limits assumed): as the sequence (P06733 whole entry) above, with R327A counted along it
T2 sequence (P06733 other isoform, or with tags, fused parts or gaps mutant limits assumed): as the sequence (P06733 whole entry) above, with S310A counted along it
T4 sequence (P06733 other isoform, or with tags, fused parts or gaps mutant limits assumed): as the sequence (P06733 whole entry) above, with G312A counted along it
T8 sequence (P02769 25-607 limits assumed): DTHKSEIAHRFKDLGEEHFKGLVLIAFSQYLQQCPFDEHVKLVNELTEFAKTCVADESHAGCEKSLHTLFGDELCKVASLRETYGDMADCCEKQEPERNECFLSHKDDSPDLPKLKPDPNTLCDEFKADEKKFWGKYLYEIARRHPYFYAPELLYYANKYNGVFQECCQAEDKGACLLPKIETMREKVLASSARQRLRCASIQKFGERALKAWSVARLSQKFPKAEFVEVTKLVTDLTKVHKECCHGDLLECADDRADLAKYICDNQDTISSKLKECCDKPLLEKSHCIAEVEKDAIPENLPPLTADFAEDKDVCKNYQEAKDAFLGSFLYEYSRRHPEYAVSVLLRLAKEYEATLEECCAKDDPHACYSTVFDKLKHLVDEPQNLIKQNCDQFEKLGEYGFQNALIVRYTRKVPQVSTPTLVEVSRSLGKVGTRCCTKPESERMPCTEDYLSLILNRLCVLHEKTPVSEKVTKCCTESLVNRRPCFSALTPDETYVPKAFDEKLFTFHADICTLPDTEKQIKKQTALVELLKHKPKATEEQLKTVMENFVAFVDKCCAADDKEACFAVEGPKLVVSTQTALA

B1: hum EN10 mAb IMGT (antibody, V domains shown)
VH: QVQLVQSGAEVKKPGASVKVSCKASGYTFTSCVMNWVRQAPGQGLEWMGYINPYNDGTKYNEKFKGRVTMTTDTSTSTAYMELRSLRSDDTAVYYCAREGFYYGNFDNWGQGTLVTVSS
VL: DIQMTQSPSSLSASVGDRVTITCRASENIYSYLTWYQQKPGKAPKLLIYNAKTLPEGVPSRFSGSGSGTDFTLTISSLQPEDFATYYCQHHYGTPYTFGQGTKLEIKR
notes: Humanized antibody, human IgG; also called Hum EN10 IMGT; hum ENO10mAb IMGT
For the molecule B1, the Kd (usually a measure of binding affinity in units of concentration) with human ENO1 protein [1] is roughly 0.203 nM; in the assay with human ENO1 protein [2] it was 0.219 nM; with human ENO1 protein [4], 0.163 nM; with human ENO1 protein [5], 0.0365 nM. The molecule also registered a Max. with human ENO1 protein [3] of 2.99 O.D 450 nm.

B2: hum EN10 mAb 4D5 (antibody, V domains shown)
VH: EVQLVESGGGLVQPGGSLRLSCAASGYTFTSCVMNWVRQAPGKGLEWVAYINPYNDGTKYNEKFKGRFTISRDDSKNTLYLQMNSLRAEDTAVYYCAREGFYYGNFDNWGQGTLVTVSS
VL: B1 VL
notes: Humanized antibody, human IgG; also called hum ENO10mAb 4D5; hum EN10 mAb 45D
As to B2, the Kd with human ENO1 protein [2] amounted to 0.5 nM.

B3: EN10.5 (antibody, V domains shown)
VH: B1 VH with C32S
VL: B1 VL
notes: same light chain as humEN10 mAb; human IgG; also called EN10.5 mAb; mAb EN10.5
B3: the Kd in [6] was 0.217 nM; with A333, 0.21 nM; in assay [7], 0.2 nM; in the assay with human ENO1 protein [4], 0.157 nM; in [8] it was 64.3 nM; in [10] it was 0.238 nM. The molecule further yielded a Max. with human ENO1 protein [3] of 2.97 O.D 450 nm. For the same molecule, the binding result in assay [9] was “no binding (tested: about 1e-7 M)”.

B4: EN10.4 (antibody, V domains shown)
VH: B1 VH with C32A
VL: B1 VL
notes: same light chain as humEN10 mAb; human IgG from FreeStyle293 cells; also called EN10.4 mAb; alanine mutant of humEN10 mAb antibody
B4: the Max. with human ENO1 protein [3] was 2.94 O.D 450 nm. Besides, the Kd with human ENO1 protein [4] came to 0.14 nM.

B5: EN10 mAb (antibody, V domains shown)
VH: EVQLQQSGPELVKPGASVKMSCKASGYTFTSCVMNWVKQKPGQGLEWIGYINPYNDGTKYNEKFKGKATLTSDKSSSTAYMELSSLTSEDSAVYYCAREGFYYGNFDNWGQGTTLTVSS
VL: DIQMTQSPASLSASVGETVTITCRASENIYSYLTWYQQKQGKSPQLLVYNAKTLPEGVPSRFSGSGSGTQFSLKINSLQPEDFGSYYCQHHYGTPYTFGGGTKLEITR
notes: Mouse monoclonal antibody purified from hybridoma ascites; also called anti-human ENO1 antibody EN10 mAb; EN10 mAb antibody
With B5, in the assay with BSA, the binding result is given as “no binding”.
